Among the data in publication PMC5298935 (2016) are Kd values, retold here.

Square brackets hold non-standard residues; d marks the D form. Ends that are not written are not given here. pS = N[C@@H](COP(=O)(O)O)C(=O)O

What all share (assay): NMR titration
Test [1] has as its target T1, IRAK1 p163 peptide 157-180 (Homo sapiens, UniProt P51617).
T1 chain: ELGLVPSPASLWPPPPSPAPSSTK

In test [2] the target is T2, IRAK1 p144 peptide 140-149 (Homo sapiens, UniProt P51617).
T2 chain: STFL[pS]PAFPG

In test [3] the target is T3, IRAK1 p163 peptide 157-180 (Homo sapiens, UniProt P51617, phospho-Ser163).
T3 chain: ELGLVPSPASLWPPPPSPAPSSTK

The target of test [4] is T4, IRAK1 p131 peptide 126-135 (Homo sapiens, UniProt P51617).
T4 chain: EAEAW[pS]PRKL

MADEEKLPPGWEKRMSRSSGRVYYFNHITNASQWERPSGNSSSGGKNGQG (not fully specified; phospho-Ser163) [Pin1 WW domain 1-50]: the Kd in test [1] came to 385 µM.

B1: Pin1 PPIase domain 46-163 (protein)
chain: KNGQGEPARVRCSHLLVKHSQSRRPSSWRQEKITRTKEEALELINGYIQKIKSGEEDFESLASQFSDCSSAKARGDLGAFSRGQMQKPFEDASFALRTGEMSGPVFTDSGIHIILRTE
B1: the Kd was 689 µM in test [2], 230 µM in test [3] and 161 µM in test [4].

By Kd is commonly meant the concentration at which binding is half-saturated. High values mean weaker binding, low ones tighter binding.
